Results published in US20190282704A1.
Residue numbers refer to the chain shown, from its start. Names may count otherwise.

B1: Feline 15H05_VH1 mouse VL (antibody, V domains shown)
VH: QVLLVQSGAEVRTPGASVKIFCKASGYSFTSYTIHWLRQAPAQGLEWMGNINPTSGYTENNQRFKDRLTLTADTSTNTAYMELSSLRSADTAMYYCARWGFKYDGEWSFDVWGAGTTVTVSS
VL: DIQMNQSPSSLSASLGDTITVTCRASQGISIWLSWYQQKPGNIPKVLINKASNLHIGVPPRFSGSGSGTHFTLTITSLQPEDIATYYCLQSQTYPLTFGGGTKLEIN
B2: Feline 15H05 1.1 FW1 (antibody, V domains shown)
VH: B1 VH
VL: B1 VL with N42K, I43V, V46L, N49Y, P60S, H70D, T76S, Q79E, I83A, N107K
B3: Feline 15H05 1.1 (antibody, V domains shown)
VH: B1 VH
VL: EIQMTQSPSSLSASPGDRVTITCRASQGISIWLSWYQQKPGKVPKLLIYKASNLHIGVPSRFSGSGSGTDFTLTISSLEPEDAATYYCLQSQTYPLTFGGGTKLEIK
B4: Feline 15H05 2.2 (antibody, V domains shown)
VH: B1 VH with S28G, L37V, A40S
VL: EITMTQSPGSLAGSPGQQVTMNCRASQGISIWLSWYQQKPGQHPKLLIYKASNLHIGVPDRFSGSGSGTDFTLTISNLQAEDVASYYCLQSQTYPLTFGGGTKLEIK
B5: Feline 15H05 3.1 (antibody, V domains shown)
VH: B1 VH with T13K, A42E
VL: B3 VL
B6: Feline 15H05 1.2 (antibody, V domains shown)
VH: B1 VH
VL: B4 VL
B7: Feline 15H05 2.1 (antibody, V domains shown)
VH: B1 VH with S28G, L37V, A40S
VL: B3 VL
B8: Feline 15H05 1.1_FW1_2 (antibody, V domains shown)
VH: B1 VH
VL: B1 VL with P60S, H70D, T76S, Q79E, I83A, N107K
B9: Feline 15H05 1.1 FW3 (antibody, V domains shown)
VH: B1 VH
VL: B3 VL with S60P, D70H, S76T, E79Q, A83I
B10: Feline 15H05 1.1 FW2 (antibody, V domains shown)
VH: B1 VH
VL: B3 VL with K42N, V43I, L46V, Y49N
B11: Feline 15H05 1.1 FW1_3 (antibody, V domains shown)
VH: B1 VH
VL: B1 VL with N42K, I43V, V46L, N49Y, N107K
B12: Feline 15H05 1.3 (antibody, V domains shown)
VH: B1 VH
VL: EVVLTQSSAFLSRTLKEKATITCRASQGISIWLSWYQQKPNQAPKLLVKKASNLHIGAPSRFSGSGSGTDFTLTISSPEPEDAATYYCLQSQTYPLTFGGGTKLGDQ
B13: Feline 15H05 VH2 mouse VL (antibody, V domains shown)
VH: B1 VH with S28G, L37V, A40S
VL: B1 VL
B14: Feline 15H05 1.1 FW2_3 (antibody, V domains shown)
VH: B1 VH
VL: B1 VL with D1E, N5T, L15P, T18R, I19V, V21I, N107K
B15: Feline 15H05_VH3 mouse VL (antibody, V domains shown)
VH: B1 VH with T13K, A42E
VL: B1 VL
B16: Feline 11E12 1.1 K46Q (antibody, V domains shown)
VH: QVLLVQSGAEVKKPGASVKIFCKASGYSFTYYDINWLRQAPEQGLEWMGWIFPGDGGTKYNETFKGRLTLTADTSTNTVYMELSSLRSADTAMYYCARGGTSVIRDAMDYWGQGALVTVSS
VL: EIQMTQSPSSLSASPGDRVTITCRASESVDNYGISFMHWYQQKPGQVPKLLIYRASNLESGVPSRFSGSGSGTDFTLTISSLEPEDAATYYCQQSNKDPLTFGQGT
B17: Feline 15H05 1.1 L46V (antibody, V domains shown)
VH: B1 VH
VL: B3 VL with L46V
B18: Feline 15H05 3.3 (antibody, V domains shown)
VH: B1 VH with T13K, A42E
VL: B12 VL
B19: Feline 15H05 1.1 Y49N (antibody, V domains shown)
VH: B1 VH
VL: B3 VL with Y49N
B20: Feline 15H05 2.3 (antibody, V domains shown)
VH: B1 VH with S28G, L37V, A40S
VL: B12 VL
B21: Feline 15H05 1.1 V43I (antibody, V domains shown)
VH: B1 VH
VL: B3 VL with V43I
B22: Feline 15H05 1.1 K42N (antibody, V domains shown)
VH: B1 VH
VL: B3 VL with K42N
B23: Feline 15H05 1.1 K42N_V43I (antibody, V domains shown)
VH: B1 VH
VL: B3 VL with K42N, V43I
B24: ZTS-361 (antibody)
heavy: QVLLVQSGAEVRTPGASVKIFCKASGYSFTSYTIHWLRQAPAQGLEWMGNINPTSGYTENNQRFKDRLTLTADTSTNTAYMELSSLRSADTAMYYCARWGFKYDGEWSFDVWGAGTTVTVSSASTTAPSVFPLAPSCGTTSGATVALACLVLGYFPEPVTVSWNSGALTSGVHTFPAVLQASGLYSLSSMVTVPSSRWLSDTFTCNVAHPPSNTKVDKTVRKTDHPPGPKPCDCPKCPPPEAAGAPSIFIFPPKPKDTLSISRTPEVTCLVVDLGPDDSDVQITWFVDNTQVYTAKTSPREEQFNSTYRVVSVLPILHQDWLKGKEFKCKVNSKSLPSPIERTISKAKGQPHEPQVYVLPPAQEELSRNKVSVTCLIKSFHPPDIAVEWEITGQPEPENNYRTTPPQLDSDGTYFVYSKLSVDRSHWQRGNTYTCSVSHEALHSHHTQKSLTQSPGK
light: EIQMTQSPSSLSASPGDRVTITCRASQGISIWLSWYQQKPGNIPKVLINKASNLHIGVPSRFSGSGSGTDFTLTISSLEPEDAATYYCLQSQTYPLTFGGGTKLEIKRSDAQPSVFLFQPSLDELHTGSASIVCILNDFYPKEVNVKWKVDGVVQNKGIQESTTEQNSKDSTYSLSSTLTMSSTEYQSHEKFSCEVTHKSLASTLVKSFQRSECQRE

target: canine IL-31 (Canine_IL31) (canine); assay: SPR (Biacore), immobilised IL-31, 1:1 fit
Sequence (chain, as listed by the source limits assumed, form in doubt): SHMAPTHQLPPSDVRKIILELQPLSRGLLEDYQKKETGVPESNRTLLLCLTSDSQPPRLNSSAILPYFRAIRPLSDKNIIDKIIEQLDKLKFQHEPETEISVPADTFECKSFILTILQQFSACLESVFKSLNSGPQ

Kd	koff	kon	Binder
0.00246 nM	2.66e-07 s⁻¹	108000 M⁻¹ s⁻¹	B1
813 nM	0.0156 s⁻¹	19200 M⁻¹ s⁻¹	B2
0.00504 nM	1.36e-07 s⁻¹	27000 M⁻¹ s⁻¹	B3
0.393 nM	1.09e-05 s⁻¹	27700 M⁻¹ s⁻¹	B4
0.795 nM	2.11e-05 s⁻¹	26500 M⁻¹ s⁻¹	B5
3.48 nM	0.000115 s⁻¹	33000 M⁻¹ s⁻¹	B6
1.65 nM	0.000866 s⁻¹	525000 M⁻¹ s⁻¹	B7
0.263 nM	3.82e-06 s⁻¹	6910 M⁻¹ s⁻¹	B8
0.13 nM	3.91e-07 s⁻¹	3000 M⁻¹ s⁻¹	B9
0.000431 nM	1.66e-07 s⁻¹	384000 M⁻¹ s⁻¹	B10
0.00436 nM	2.88e-08 s⁻¹	6590 M⁻¹ s⁻¹	B11
6.38 nM	0.00019 s⁻¹	29700 M⁻¹ s⁻¹	B12
2.22 nM	0.000379 s⁻¹	171000 M⁻¹ s⁻¹	B13
214 nM	0.00193 s⁻¹	9050 M⁻¹ s⁻¹	B14
0.00264 nM	2.64e-07 s⁻¹	100000 M⁻¹ s⁻¹	B15
1.91 nM	8.85e-05 s⁻¹	46400 M⁻¹ s⁻¹	B16

target: wildtype feline IL-31 (Feline_IL31_wildtype) (feline); assay: SPR (Biacore), immobilised IL-31, 1:1 fit
Sequence (chain, as listed by the source limits assumed, form in doubt): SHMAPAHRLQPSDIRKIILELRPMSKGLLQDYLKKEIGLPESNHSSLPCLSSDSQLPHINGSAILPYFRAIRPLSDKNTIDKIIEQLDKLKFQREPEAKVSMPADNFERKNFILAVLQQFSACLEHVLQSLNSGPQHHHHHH

Kd	koff	kon	Binder
0.168 nM	2.2e-05 s⁻¹	131000 M⁻¹ s⁻¹	B1
564 nM	0.00286 s⁻¹	5060 M⁻¹ s⁻¹	B2
13.5 nM	0.00131 s⁻¹	97100 M⁻¹ s⁻¹	B3
2.15 nM	0.00195 s⁻¹	905000 M⁻¹ s⁻¹	B4
37.1 nM	0.00166 s⁻¹	44700 M⁻¹ s⁻¹	B5
104 nM	0.00147 s⁻¹	14100 M⁻¹ s⁻¹	B6
22.3 nM	0.00465 s⁻¹	208000 M⁻¹ s⁻¹	B7
0.887 nM	6.7e-06 s⁻¹	7560 M⁻¹ s⁻¹	B8
22.8 nM	0.000811 s⁻¹	35500 M⁻¹ s⁻¹	B17
11.6 nM	0.000886 s⁻¹	76300 M⁻¹ s⁻¹	B18
39.5 nM	0.00095 s⁻¹	24000 M⁻¹ s⁻¹	B19
1.57 nM	0.000535 s⁻¹	341000 M⁻¹ s⁻¹	B20
13.6 nM	0.000401 s⁻¹	29400 M⁻¹ s⁻¹	B21
6770 nM	0.011 s⁻¹	1630 M⁻¹ s⁻¹	B22
0.0564 nM	1.21e-05 s⁻¹	214000 M⁻¹ s⁻¹	B9
0.065 nM	2.49e-05 s⁻¹	383000 M⁻¹ s⁻¹	B10
9.42 nM	0.0022 s⁻¹	234000 M⁻¹ s⁻¹	B23
0.0674 nM	3.02e-05 s⁻¹	448000 M⁻¹ s⁻¹	B11
86.4 nM	0.00328 s⁻¹	38000 M⁻¹ s⁻¹	B12
1.61 nM	5.47e-05 s⁻¹	34000 M⁻¹ s⁻¹	B13
123 nM	0.00116 s⁻¹	9490 M⁻¹ s⁻¹	B14
0.177 nM	1.57e-05 s⁻¹	88900 M⁻¹ s⁻¹	B15
12.6 nM	0.000145 s⁻¹	11500 M⁻¹ s⁻¹	B16
0.474 nM	2.18e-05 s⁻¹	46000 M⁻¹ s⁻¹	B24
